Laboratory results published in publication PMC5768893.

B1: PKCζ: Ogt KD (protein)
parent chain: MPSRTDPKMDRSGGRVRLKAHYGGDILITSVDAMTTFKDLCEEVRDMCGLHQQHPLTLKWVDSEGDPCTVSSQMELEEAFRLVCQGRDEVLIIHVFPSIPEQPGMPCPGEDKSIYRRGARRWRKLYRANGHLFQAKRFNRGAYCGQCSERIWGLSRQGYRCINCKLLVHKRCHVLVPLTCRRHMDSVMPSQEPPVDDKNDGVDLPSEETDGIAYISSSRKHDNIKDDSEDLKPVIDGVDGIKISQGLGLQDFDLIRVIGRGSYAKVLLVRLKKNDQIYAMKVVKKELVHDDEDIDWVQTEKHVFEQASSNPFLVGLHSCFQTTSRLFLVIEYVNGGDLMFHMQRQRKLPEEHARFYAAEICIALNFLHERGIIYRDLKLDNVLLDADGHIKLTDYGMCKEGLGPGDTTSTFCGTPNYIAPEILRGEEYGFSVDWWALGVLMFEMMAGRSPFDIITDNPDMNTEDYLFQVILEKPIRIPRFLSVKASHVLKGFLNKDPKERLGCRPQTGFSDIKSHAFFRSIDWDLLEKKQTLPPFQPQITDDYGLDNFDTQFTSEPVQLTPDDEDVIKRIDQSEFEGFEYINPLLLSAEESV
B2: PKCζ: Thiamet G (protein)
parent chain: B1 parent chain
B3: PKCζ: PUGNAc (protein)
parent chain: B1 parent chain
B4: PKCζ: T408A (protein)
parent chain: B1 parent chain

How the values were obtained:
[1] = western blot anti-pT410 after FGF4 stimulation; settings: glycan lost; control: control cells stimulated with FGF4
[2] = western blot and immunostaining, anti-pT410, endogenous PKCζ; settings: glycan lost; control: control (Egfp shRNA) ESCs
[3] = anti-FLAG IP, anti-pT410 blot; settings: glycan gained; control: untreated PKCζ-FLAG cells
[4] = western blot anti-pT410 during PrE differentiation; settings: glycan gained; control: PrE day 4 cells without inhibitor
[5] = western blot of phosphorylated PKCζ-FLAG; settings: glycan lost; control: wild-type PKCζ-FLAG

Protein	other: PKCζ Thr-410 phosphorylation [1]	other: PKCζ Thr-410 phosphorylation [2]	other: PKCζ Thr-410 phosphorylation [3]	other: PKCζ Thr-410 phosphorylation [4]	other: PKCζ phosphorylation [5]
B1	increases	increases			
B2			decreases	decreases	
B3			decreases	decreases	
B4					no change
